PMC4520625 (Biochemistry, 2015)
Ends that are not written are not given here. * marks the point of attachment. Galβ1,3GalNAcα = CC(=O)N[C@@H]1[C@@H](O[C@@H]2O[C@H](CO)[C@H](O)[C@H](O)[C@H]2O)[C@@H](O)[C@@H](CO)O[C@@H]1*

Tests used:
[1] = biological target: full-length human galectin-3 (human, UniProt P17931 1-250); experiment: ITC
His-tagged galectin-3 = His-tagged galectin-3 (human, UniProt P17931 1-250); experiment: AlphaScreen or HTRF
His-tagged galectin-3, sequence (P17931 whole entry): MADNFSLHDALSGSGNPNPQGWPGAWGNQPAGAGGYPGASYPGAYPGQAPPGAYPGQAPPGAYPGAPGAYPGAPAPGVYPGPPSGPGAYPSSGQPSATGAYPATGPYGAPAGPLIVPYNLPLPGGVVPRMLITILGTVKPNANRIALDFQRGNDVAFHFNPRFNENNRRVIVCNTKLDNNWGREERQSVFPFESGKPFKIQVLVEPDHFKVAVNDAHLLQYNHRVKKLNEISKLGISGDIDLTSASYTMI

full-length human galectin-3, sequence (P17931 whole entry): as above

| Ka [1] | dH [1] | stoichiometry N [1] | IC50 (His-tagged galectin-3) | Binder |
| --- | --- | --- | --- | --- |
| 2900 M⁻¹ | -1.32 kcal/mol | 0.97 | – | HGVT(Galβ1,3GalNAcα)SAPD [MUC1(1-8)-Thr4 truncated glycopeptide carrying the TF antigen] |
| 7600 M⁻¹ | -1.79 kcal/mol | 0.87 | – | HGVT(Galβ1,3GalNAcα)SAPDTRPAPGS [MUC1(1-15)-Thr4 truncated glycopeptide carrying the TF antigen] |
| – | – | – | 2.3 nM | asialofetuin (ASF), unlabeled (natural protein, UniProt P12763 19-359, looked up, three complex-type N-glycans (asialo)) IPLDPVAGYKEPACDDPDTEQAALAAVDYINKHLPRGYKHTLNQIDSVKVWPRRPTGEVYDIEIDTLETTCHVLDPTPLANCSVRQQTQHAVEGDCDIHVLKQDGQFSVLFTKCDSSPDSAEDVRKLCPDCPLLAPLNDSRVVHAVEVALATFNAESNGSYLQLVEISRAQFVPLPVSVSVEFAVAATDCIAKEVVDPTKCNLLAEKQYGFCKGSVIQKALGGEDVRVTCTLFQTQPVIPQPQPDGAEAEAPSAVPDAAGPTPSAAGPPVASVVVGPSVVAVPLPLHRAHYDLRHTFSGVASVESSSGEAFHVGKTPIVGQPSIPGGPVRLCPGRIRYFKI |
